Reference: patent publication US20260234242A1 (HAINAN SIMCERE ZAIMING PHARMACEUTICAL, published 2026)

T1: human CDH6 on tumor cells (OVCAR3 cells, PA-1 cells) (human, UniProt P55285 54-790)
T1 sequence: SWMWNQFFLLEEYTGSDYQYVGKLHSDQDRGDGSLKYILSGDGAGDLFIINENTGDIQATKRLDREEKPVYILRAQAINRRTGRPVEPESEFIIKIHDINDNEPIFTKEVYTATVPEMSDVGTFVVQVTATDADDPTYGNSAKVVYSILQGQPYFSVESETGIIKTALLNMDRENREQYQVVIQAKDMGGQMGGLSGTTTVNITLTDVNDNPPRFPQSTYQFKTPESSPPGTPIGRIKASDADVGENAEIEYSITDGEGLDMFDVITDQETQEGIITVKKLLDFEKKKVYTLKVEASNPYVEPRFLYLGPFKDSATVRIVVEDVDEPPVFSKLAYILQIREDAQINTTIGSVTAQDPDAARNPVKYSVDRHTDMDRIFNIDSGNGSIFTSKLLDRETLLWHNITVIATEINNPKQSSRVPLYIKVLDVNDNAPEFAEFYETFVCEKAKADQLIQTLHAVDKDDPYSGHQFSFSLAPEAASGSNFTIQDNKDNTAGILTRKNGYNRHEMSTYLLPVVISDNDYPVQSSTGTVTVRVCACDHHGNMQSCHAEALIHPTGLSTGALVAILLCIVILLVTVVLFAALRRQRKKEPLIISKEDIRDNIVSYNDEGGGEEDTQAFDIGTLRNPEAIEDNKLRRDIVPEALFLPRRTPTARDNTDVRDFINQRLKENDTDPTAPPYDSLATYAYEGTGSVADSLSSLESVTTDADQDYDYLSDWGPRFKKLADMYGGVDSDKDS

T2: his-tagged human CDH6 extracellular region protein (hCDH6 ECD-his) (human, UniProt P55285 19-615)
T2 construct: also called Human CDH6-his; hCDH6-his; not shown: his tag
T2 sequence: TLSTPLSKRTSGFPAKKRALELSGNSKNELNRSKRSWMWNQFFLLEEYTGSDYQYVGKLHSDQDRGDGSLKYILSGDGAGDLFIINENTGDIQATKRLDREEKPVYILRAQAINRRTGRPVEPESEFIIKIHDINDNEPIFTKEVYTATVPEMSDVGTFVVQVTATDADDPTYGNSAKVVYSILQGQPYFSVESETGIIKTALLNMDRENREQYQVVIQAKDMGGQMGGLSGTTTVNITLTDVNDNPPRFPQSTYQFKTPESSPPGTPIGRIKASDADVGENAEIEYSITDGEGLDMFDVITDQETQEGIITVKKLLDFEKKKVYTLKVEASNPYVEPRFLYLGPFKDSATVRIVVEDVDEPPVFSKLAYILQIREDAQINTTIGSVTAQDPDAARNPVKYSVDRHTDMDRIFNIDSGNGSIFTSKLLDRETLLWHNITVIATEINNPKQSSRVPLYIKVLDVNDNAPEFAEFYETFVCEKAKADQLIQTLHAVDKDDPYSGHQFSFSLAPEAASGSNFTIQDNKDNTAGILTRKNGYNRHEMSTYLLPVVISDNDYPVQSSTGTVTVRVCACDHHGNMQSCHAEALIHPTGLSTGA


Tests used:
[1] = biological target: T1, human CDH6 on tumor cells (OVCAR3 …); experiment: FACS, OVCAR3 cells
Method: OVCAR3 cells with high expression of CDH6 and PA-1 cells with moderate expression of CDH6 were used to detect the binding activity of the antibodies to the cells. […] The cells were washed once with PBS, counted, resuspended to 2×10⁶ cells/mL in an FACS buffer (PBS+2% FBS), and then added to a 96-well plate at 50 μL/well. The chimeric antibodies were diluted with FACS buffer (PBS+2% FBS) and added to the 96-well plate at 50 μL/well, and the plate was incubated at 4° C. for 1 h. […] The dilution was added to the 96-well plate at 50 μL/well, and the plate was incubated at 4° C. for 1 h. After the plates were centrifuged and washed 2 times with PBS, the cells were resuspended in an FACS buffer. The mean fluorescence intensity (MFI) was measured using FACS Canton II (BD). Analysis was performed by the GraphPad Prism software, data were fitted, and EC50 values were calculated. The chimeric antibodies tested had strong binding to both OVCAR3 cells and PA-1 cells.
According to the above sequences, heavy chain (HC) and light chain (LC) plasmids were constructed (the nucleic acid sequences encoding the VH and VL of the antibodies were recombined into an expression vector carrying a signal peptide (SEQ ID NO: 132, […]) and a heavy chain constant region/light chain constant region sequence to obtain recombinant plasmids expressing VH-CH1-Fc/VL-CL). According to the expression and purification methods in Example 2, the hCDH6-1 humanized antibodies were obtained, and the binding activity of the humanized antibodies was detected by ELISA and FACS (see 2.2 and 2.3 for the method).

[2] = biological target: T2, his-tagged human CDH6 extracellular …; experiment: ELISA, coated antigen
Method: Human CDH6 protein (hCDH6 ECD-his, conventionally synthesized), monkey CDH6 protein (cynoCDH6 ECD-his, conventionally synthesized; the cynoCDH6 ECD sequence was derived from Uniprot #A0A2K5TW62 (19-615)), and murine CDH6 protein (mCDH6 ECD-his, conventionally synthesized; the mCDH6 ECD sequence was derived from Uniprot #P97326 (19-615)) were diluted with PBS to a final concentration of 1 μg/mL, and added to a 96-well ELISA plate at 100 μL/well. The plate was incubated at 4° C. overnight. The next day, the plate was washed 3 times with a plate washing solution (PBS+0.01% (v/v) Tween 20), and a blocking buffer (PBS+0.01% (v/v) Tween 20+2% (w/w) BSA) was added for blocking at room temperature for 2 h. The blocking buffer was discarded, and the plate was washed 3 times. The chimeric antibodies were diluted with 1% BSA+PBS (purchased from Cytiva, Cat. No. SH30264.01) and added to the 96-well plate at 50 μL/well. After incubation at 37° C. for 2 h, the plate was washed 3 times with a plate washing solution. […] The plate was incubated at 37° C. for 1 h and then washed 5 times with a plate washing solution. A TMB substrate (purchased from Seracare, Cat. No. 5120-0077) was added at 50 μL/well and incubated at room temperature for 10 min, then a stop solution (1.0 N HCl) was added at 50 μL/well. OD450 nm values were read using a microplate reader (Biotek). Analysis was performed by the GraphPad Prism software, data were fitted, and EC50 values were calculated. The chimeric antibodies tested all had strong binding to the human CDH6 protein, the monkey CDH6 protein, and the murine CDH6 protein.
According to the above sequences, heavy chain (HC) and light chain (LC) plasmids were constructed (the nucleic acid sequences encoding the VH and VL of the antibodies were recombined into an expression vector carrying a signal peptide (SEQ ID NO: 132, […]) and a heavy chain constant region/light chain constant region sequence to obtain recombinant plasmids expressing VH-CH1-Fc/VL-CL).

[3] = biological target: T2, his-tagged human CDH6 extracellular …; experiment: SPR Biacore, antibody captured on Protein A
Method: The affinity of the antibody for the antigen was determined by a multi-cycle kinetic method using a BIAcore 8K instrument. In each cycle, the antibody to be tested was captured using a Protein A chip (purchased from GE, Cat. No. 29-1275-56), and then the antigen human CDH6 protein (hCDH6-his, conventionally synthesized) was injected. The association and dissociation processes of the antibody with the antigen protein were recorded, and finally, the chip was regenerated using Glycine pH 1.5, wherein the mobile phase was HBS-EP+ (10 mM HEPES, 150 mM NaCl, 3 mM EDTA, 0.05% surfactant P20, and 1 mM Ca), the flow rate was 30 μL/min, the association time was 240 s, the dissociation time was 300 s, the regeneration time was 30 s, the detection temperature was 25° C., and the antigen concentration was 31.25-1000 nM. The data were analyzed using Biacore 8K analysis software (version No. 2.0) based on the 1:1 binding model to fit the antibody-antigen binding kinetic parameters, including the association rate constant ka, the dissociation rate constant kd, and the equilibrium dissociation constant KD. The affinity values of the control antibody DS-H01L02 were undetectable. Antibodies not shown in the table had undetectable affinity values.
Four hCDH6-1 humanized antibodies with fewer back mutations were selected, and the affinity for human CDH6 protein was further confirmed using Biacore.

Row | Binder | EC50 [1] [nM] | Max MFI [1] [MFI] | EC50 [2] [nM] | Max OD450 [2] [OD450] | Kd [3] [nM] | koff [3] [s⁻¹] | kon [3] [M⁻¹ s⁻¹]
1 | hCDH6-1-H1L1 (antibody, V domains shown, Humanized) VH: EVQLVQSGAEVKKPGSSVKVSCKASGYTFSNYWMHWVRQAPGQGLEWMGDIDPSHSETHYTQKFKDRVTITVDKSTSTAYMELSSLRSEDTAVYYCARGDLGRFDYWGQGTTVTVSS VL: DIVMTQSPDSLAVSLGERATINCRASESVSIHGTHLMHWYQQKPGQPPKLLIYAASNLESGVPDRFSGSGSETDFTLTISSLQAEDVAVYYCQQSFEDPWTFGGGTKVEIK | 0.166 | 14400 | 0.025 | 2.8 | 21.7 | 0.00456 | 210000
2 | hCDH6-1-H1L3 (antibody, V domains shown, Humanized) VH: EVQLVQSGAEVKKPGSSVKVSCKASGYTFSNYWMHWVRQAPGQGLEWMGDIDPSHSETHYTQKFKDRVTITVDKSTSTAYMELSSLRSEDTAVYYCARGDLGRFDYWGQGTTVTVSS VL: DIQMTQSPSSLSASVGDRVTITCRASESVSIHGTHLMHWYQQKPGKPPKLLIYAASNLESGVPSRFSGSGSETDFTFTISSLQPEDIATYYCQQSFEDPWTFGGGTKVEIK | 0.175 | 14500 | 0.029 | 2.67 | 18.9 | 0.00824 | 435000
3 | hCDH6-1-H1L2 (antibody, V domains shown, Humanized) VH: EVQLVQSGAEVKKPGSSVKVSCKASGYTFSNYWMHWVRQAPGQGLEWMGDIDPSHSETHYTQKFKDRVTITVDKSTSTAYMELSSLRSEDTAVYYCARGDLGRFDYWGQGTTVTVSS VL: DIVMTQSPDSLAVSLGERATINCRASESVSIHGTHLMHWYQQKSGQPPKLLIYAASNLESGVPDRFSGSGSETDFTLTISSLQAEDVAVYYCQQSFEDPWTFGGGTKVEIK | 0.177 | 14500 | 0.027 | 2.75 | 21.5 | 0.00422 | 196000

Results, then the binder that gave them:

Row | EC50 [1] [nM] | Max MFI [1] [MFI] | EC50 [2] [nM] | Max OD450 [2] [OD450] | Kd [3] [nM] | koff [3] [s⁻¹] | kon [3] [M⁻¹ s⁻¹] | Binder
4 | 0.176 | 15200 | 0.026 | 2.55 | – | – | – | hCDH6-1-H4L2 (antibody, V domains shown, Humanized) VH: EVQLVQSGAEVKKPGSSVKVSCKASGYTFTNYWMHWVRQRPGQGLEWMGDIDPSHSETHYTQKFKDRVTITVDKSTSTAYMELSSLRSEDTAVYYCARGDLGRFDYWGQGTTVTVSS VL: DIVMTQSPDSLAVSLGERATINCRASESVSIHGTHLMHWYQQKSGQPPKLLIYAASNLESGVPDRFSGSGSETDFTLTISSLQAEDVAVYYCQQSFEDPWTFGGGTKVEIK
5 | 0.162 | 15100 | 0.029 | 2.61 | – | – | – | hCDH6-1-H4L3 (antibody, V domains shown, Humanized) VH: EVQLVQSGAEVKKPGSSVKVSCKASGYTFTNYWMHWVRQRPGQGLEWMGDIDPSHSETHYTQKFKDRVTITVDKSTSTAYMELSSLRSEDTAVYYCARGDLGRFDYWGQGTTVTVSS VL: DIQMTQSPSSLSASVGDRVTITCRASESVSIHGTHLMHWYQQKPGKPPKLLIYAASNLESGVPSRFSGSGSETDFTFTISSLQPEDIATYYCQQSFEDPWTFGGGTKVEIK
6 | 0.167 | 14300 | 0.026 | 2.58 | – | – | – | hCDH6-1-H3L2 (antibody, V domains shown, Humanized) VH: EVQLVQSGAEVKKPGSSVKVSCKASGYTFTNYWMHWVRQAPGQGLEWMGDIDPSHSETHYTQKFKDRVTLTVDKSTSTAYMELSSLRSEDTAVYYCARGDLGRFDYWGQGTTVTVSS VL: DIVMTQSPDSLAVSLGERATINCRASESVSIHGTHLMHWYQQKSGQPPKLLIYAASNLESGVPDRFSGSGSETDFTLTISSLQAEDVAVYYCQQSFEDPWTFGGGTKVEIK
7 | 0.152 | 14000 | 0.031 | 2.62 | – | – | – | hCDH6-1-H4L1 (antibody, V domains shown, Humanized) VH: EVQLVQSGAEVKKPGSSVKVSCKASGYTFTNYWMHWVRQRPGQGLEWMGDIDPSHSETHYTQKFKDRVTITVDKSTSTAYMELSSLRSEDTAVYYCARGDLGRFDYWGQGTTVTVSS VL: DIVMTQSPDSLAVSLGERATINCRASESVSIHGTHLMHWYQQKPGQPPKLLIYAASNLESGVPDRFSGSGSETDFTLTISSLQAEDVAVYYCQQSFEDPWTFGGGTKVEIK
8 | 0.155 | 14600 | 0.03 | 2.71 | – | – | – | hCDH6-1-H3L3 (antibody, V domains shown, Humanized) VH: EVQLVQSGAEVKKPGSSVKVSCKASGYTFTNYWMHWVRQAPGQGLEWMGDIDPSHSETHYTQKFKDRVTLTVDKSTSTAYMELSSLRSEDTAVYYCARGDLGRFDYWGQGTTVTVSS VL: DIQMTQSPSSLSASVGDRVTITCRASESVSIHGTHLMHWYQQKPGKPPKLLIYAASNLESGVPSRFSGSGSETDFTFTISSLQPEDIATYYCQQSFEDPWTFGGGTKVEIK
